From a protein production outcome set (Wang et al. 2014)

Experiment: label from the status in PepcDB records

Row | Sequence | protein production
1 | MKTSFSIRIAFFFILSFLAVSCHRDTDALNMTFSKVEKCMDLCPDSALNLLKGIHDPEKLWGESQATYALLMTQAMDKNYMKFSSDSLIALALNYYTITQTSPIMYAKALFYHGRVMLELDKEEEALKSFLAAKDVYERTKDHKMLALIAEEVGMINRKQDLYDDALTNFREALTTYKQLKDSLSVISASLNIARVYLFKSEWDSCSLYYNNALEIAVQKNYLSEITILHELGILYRSMQNLSEAERYFLAAYEKETDEEKKYMECLSLGYLYMQMGQTENARKYLIMSANSSKAYTQISAYDCLYFLEKDIDNFEEAIVYHELADSITNAMEELNSRELIASLQKKYENEKLRNDNLQMKVRYTNFILWGTIAFLFVVACMCYYYYKNRNNKKKIAEIELQIQENEEEIERYQQEIEDIQISKDQVLKENLMLEENRTKVGELNGKIVLLTMQNKTLSEHLKELGGELNVGISSGSFIHAFRLLLAIKEGTLRGKLSNEERQKLFSLFDLIYWNYVSRLLERAPTLTKHDLEICCFLKFGLSHEELSCIFHTTSDSVTRAKGRLKGRLGISPQDDLDLFLKEF | failed
2 | MKTSLRLEDGTKNSLQIPIDLIIEIFLRLSVNSIARCRCVSKQWASTLSRPYFTELFLTRSLARPKLLFAYRKGSDYLFLSSPQLQNPDDDHKKSSPVVVNYHMHHILTLGSGNMSWRTIQCCIPHRSFDGGICIDGLIYYYAGVNNNDIVIVCFDVRSEEFRFIIGALHHGSLINYNGKLSLYLPSTVYSRFNGVIRSIKLWVLEDAKRQEWSEHTYILPAMHDIMKTTDLRCVGMTQTKEFVFWSIKGMRFYVFYYNIERNTIKKVEMQGMEAFKESNVYTFLDHVEDVKLMQFF | failed
3 | MKTSVIISTYTKERYKDVLRCIESVRHQSLKPYEILLILDPVKSLVEYYKNIVPKDVRVVVSDGFGLSKARNKGVFEAKGDIIAFIDDDAWADDLWLEKIVENYSDEGVYGVGGKIIPVFENGRPKWLPEELDWIVGCTYKGMPEQRTNIRNPIGANMSFRREAFEIAGPFRSEIGRYGKKLLSGEEAEFAMRLRKIKPDAKIIYEPSAVVYHKVPKSRVRISYAVKRAFYEGYSKAILAKEFPLEMESKYLNFILRSILRKLLSKGQQIEALVMSVIVMTVGIGNLYGTCRILLRK | failed
4 | MKTVLAFGDSLTWGADPATGLRHPVEHRWPDVLEAELAGKAKVHPEGLGGRTTCYDDHAGPACRNGARALEVALSCHMPLDLVIIMLGTNDIKPVHGGRAEAAVSGMRRLAQIVETFIYKPREAVPKLLIVAPPPCVAGPGGEPAGGRDIEQS | not failed
5 | MKTVRCSILGFGAIGQGVAEVLLMKKEYLESIGLEIIVVAVVDSRGATINPEGVDLADCLARKRTTGTVAIEKITGVEVIKSIDHDLVIETTPTNIVTGGAGLQNMFAAFEIGKDVITSNKGPLTLKYRELMEAAKVAGSSFRFEATVGGSMPIINLANEVLAGNRLKSIKGILNGTCNYILTRMLEERASYKDILAESMELGIAETDPTYDVDGIDTACKLVILANAIFGLNATYKDVEVTGITKITPEALEMAYERGHVIKLIGEVSRERIHVAPRLVPINHPLDVRGTLNVASIDTELAGEITVTGKGAGPVETASAILSDLIAIYGNQLEHHHHHH | not failed
6 | MKTVVIGAGLGGLLSAARLSKAGHEVEVFERLPITGGRFTNLSYKGFQLSSGAFHMLPNGPGGPLACFLKEVEASVNIVRSEMTTVRVPLKKGNPDYVKGFKDISFNDFPSLLSYKDRMKIALLIVSTRKNRPSGSSLQAWIKSQVSDEWLIKFADSFCGWALSLKSDEVPVEEVFEIIENMYRFGGTGIPEGGCKGIIDALETVISANGGKIHTGQEVSKILIENGKAAGIIADDRIHDADLVISNLGHAATAVLCSEALSKEADAAYFKMVGTLQPSAGIKICLAADEPLVGHTGVLLTPYTRRINGVNEVTQADPELAPPGKHLTMCHQYVAPENVKNLESEIEMGLEDLKEIFPGKRYEVLLIQSYHDEWPVNRAASGTDPGNETPFSGLYVVGDGAKGKGGIEVEGVALGVMSVMEKVLGLEHHHHHH | not failed
7 | MKTWIFICMSIAMLLWFLSTLRRKPSQKKGCIDAIIPAYNEGPCLAQSLDNLLRNPYFCRVICVNDGSTDNTEAVMAEVKRKWGDRFVAVTQKNTGKGGALMNGLNYATCDQVFLSDADTYVPPDQDGMGYMLAEIERGADAVGGIPSTALKGAGLLPHIRATVKLPMIVMKRTLQQLLGGAPFIISGACGMFRTDVLRKFGFSDRTKVEDLDLTWTLVANGYRIRQANRCIVYPQECNSPREEWRRWRRWIVGYAVCMRLHKRLLFSRFGIFSIFPMLLVVLYGVGIYLTTWFNEFITTGPHGVVLAMFPLIWVGVVCVIGAFSAWFHRCWLLVPLAPLSVVYVLLAYAIWIIYGLIAFFTGREPQRDKPTRYSALVEASTAYSQPSVTGTEKLSEA | failed
8 | MKVAGDKIKQARKLKKITQSELANGICTQATISNIENRNLCDSLDIFSSICLRLDLEVEECMMISEEKKIENLLNKVEDLSLRLFHLEAYNLLQEVPEGLILSNNELTTKLLYYKGITCLLGKKDKAEALFYLYRGAEIDRKVNIYNILSLNALGTLYELEKDMRKAQVYYEKSLQELEQFKLECSLERCRIYYNSAKFYSEMKDYQKSVILSEKGIQICRDKHSIYLLDYLLYEKAFNKQMLGEDTADDYRQAYYFTQFFGNTEVLQYIEKDMKAFNISY | failed
9 | MKVAIMGAGAVGCYYGGMLARAGHEVILIARPQHVQAIEATGLRLETQSFDEQVKVSASSDPSAVQGADLVLFCVKSTDTQSAALAMKPALAKSALVLSLQNGVENADTLRSLLEQEVAAAVVYVATEMAGPGHVRHHGRGELVIEPTSHGANLAAIFAAAGVPVETSDNVRGALWAKLILNCAYNALSAITQLPYGRLVRGEGVEAVMRDVMEECFAVARAEGVKLPDDVALAIRRIAETMPRQSSSTAQDLARGKRSEIDHLNGLIVRRGDALGIPVPANRVLHALVRLIEDKQQHG | not failed
10 | MKVDDTEEASQKPEDILAQGKDEARLSLEERRKLFQSKGLSAEESLVSVSTEDTLFQKEEDSKVYPLSMTWSFGWNSSLPVYYMREDRRVILYTCAHTAIMYDVVRNTQYHLQGHPNIISCLCVSEDRRWIATADEGPDCLIIIWDSFTGIPVHTIFDSCPEGNGMRSIAITRDSKFLATISDSATQKVCIWKWTLAVETPACTLELPKEYGFQDNLVFNPANNKELVSNSKTQAIYYCWFEDKGILAHSAPVLTEKTFNKLVGKFSQSVFHLKLPQVLSATKEGKLVVWDIHYPSSTSSSAISAFPFIKPRKLVHLQKEAITVLMTIDSYIVTGDIKGNIKFYDHTLSVVNWYSNFKLGAIRTLSFSKTIPSLPTEKSNLPTDCTLRGDLFVVRNFIIGTFDATVYHMTVDGTKLEKLFVEPRDAVYAVSCHPYQPLIAVGSVCGMIKVWDFEKKVYLFSRTFEKGLGVQCLTYNPEGALLGAGFTEGTVYILDAMSLENESPEPFKYSKSSVSHCCFSHDSNYMATADVNFTVAVYMVVVKNGQRVWEYLARLRSHQNSIQSLLFGVHLDSNEPRLLSLGKDRFLIEYNLVKSCKDHLDVLDVHRTDQGNYPTCMIWYPPLTKELFLLICNSGYKVKLFNATTKMCRKTLLGPAYGSPIEHAQVLPVKSTLELQKRYLVFINKDKVGLQILPVDGNPHKTCAIVCHPNGVAGMALSYDGRFAFTAGGQDRSVVQWKINLGALEAAVSLGGEDLTPFYGLVSGGREGKFYRELEDYFYYSQIRSQGIDTMETRQVSEHICLSELPFVMRAIGFYPSEEKIEDMFNEIKFSEYVETGKLIDKINLPDFLKVYLNHRPPFGNTMDGIQNSFNVLGYTNSEGKKAIRREDFLNLLLTKGEHMTEEEMIDCFSTLFGLTPEGWKSEPAATCINGPEICLQKELPEEITAEIFTTEILGLTLSDSSEQLIQ | failed
11 | MKVFDVHKFDMKKEQDFLQVQFNLKNRINLSPTIHPDSINTGAGVDLAYWEQDGEPYGVCCIIVIDADTKEVIEKVHSMGRISVPYVSGFLAFRELPLIIEAAKKLETEPDVFLFDGNGYLHYNHMGVATHAAFFLGKPTIGIAKTYLKIKGCDFVTPEIEVGAYTDIIIDGEVYGRALRTRRDVKPIFLSCGNYIDLDSSYQITMSLINQESRLPIPVRLADLETHVLRTFYQKNHVLEHHHHHH | not failed
12 | MKVFITGGTGFVGSAVVQELVANGFEVVGLARSETSAQKLISWGAQPVRGSLTSLSTLATAAAQADAIIHLGFNNDFRHFFQAGAMDRRAIETMGRAISGTNKPLVVTYGTTGIRKHVETEHEVADTGLLKWLTPRKSEIVARQLMAQNINAFVVRLSPAVHGAGDMGFTRTVIERAKKSHRAEYFGLGTHAWSAVHRLDAAHLFYLVTMYGLEHPTTNERVFNAVAEESITIAAIARTISRKLNVPLKAKYNPLSFGDTAMLYLINCPTSSQLTRQILGWVPVQPDLLTDISSSRYLEHHHHHH | failed
